# The DeepSol protein solubility set
# Assay: soluble on expression in E. coli; label from the status in PepcDB or PDB records
row,Sequence,soluble on expression in E. coli
1,AQGLQARFQLLRVLEVPADDAVAKGLEISFGEPVALIERLGLADEEPISVGSGYFPLKRFPDFLEPENIKILQEQQSISQFLQQVYGCDHIRRSTCVSARLVQPQDAKWLQIPLNQPILLAESVNVDQAGNVIEYGVTRLRGDRME,not soluble
2,AQGRQPRTETLHAERRAAGAWLAKRMGLEDSAPVYFLQRRRWVDERPVLIELIALDAGWCPGLLDHDLDTSLMSLLRERFGLQPTRCQLAMHPTALNAAQAEPLQLAPGSPALYLERLSYAEGQRVVEFDQEFWRPDALEIVLDAAYPGA,soluble
3,AQKSVKISDDISITQLSDKVYTYVSLAEIEGWGMVPSNGMIVINNHQAALLDTPINDAQTEMLVNWVTDSLHAKVTTFIPNHWHGDCIGGLGYLQRKGVQSYANQMTIDLAKEKGLPVPEHGFTDSLTVSLDGMPLQCYYLGGGHATDNIVVWLPTENILFGGCMLKDNQATSIGNISDADVTAWPKTLDKVKAKFPSARYVVPGHGDYGGTELIEHTKQIVNQYIESTSKP,soluble
4,ARVDQTPRIATKETGESLTINCVLRDTACALDSTNWYRTKLGSTKEQTISIGGRYSETVDEGSNSASLTIRDLRVEDSGTYKCKAYRRCAFNTGVGYKEGAGTVLTVK,soluble
5,ASDHQTQAGKPQPLNPKIIIFEQENFQGHSHELSGPCPNLKETGMEKAGSVLVQAGPWVGYEQANCKGEQFVFEKGEYPRWDSWTSSRRTDSLSSLRPIKVDSQEH,soluble
6,ASMTGGQQMGRGSGPMLIEFNIPVDLKLVEQQNPKVKLGGRYTPMDGASVHKMALLVPFRDRFEELLQFVPHMTAFLKRQGVAHHIFVLNQVDRFRFNRASLINVGFQFASDVYDYIAMHDVDLLPLNDNLLYEYPSSLGPLHIAGPKLHPKYHYDNFVGGILLVRREHFKQMNGMSNQYWGWGLEDDEFFVRIRDAGLQVTRPQNIKTGTNDTFSHIHNRYHRKRDTQKCFNQKEMTRKRDHKTGLDNVKYKILKVHEMLIDQVPVTILNILLDCDVNKTPWCDCS,soluble
7,ASVKAVGRVCYSALPSQAHDTLDLIDEGGPFPYSQDGVVFQNREGLLPAHSTGYYHEYTVITPGSPTRGARRIITGQQWQEDYYTADHYASFRRVDFAC,soluble
8,ATADPGVRAMDYQQATDVVIARGLSQRGVPFSWAGGGINGPTRGTGTGANTVGFDASGLMQYAYAGAGIKLPRSSGAMYRVGQKILPQQARKGDLIFYGPEGTQSVAMYLGNNQMLEVGDVVQVSPVRTAGMAPYMVRVLGT,soluble
9,ATGWNNALGHTAANEEPQEEASSQTTSIHFPLDYKQWQEEQDINLLNRALEEAKFNQRQAAELLGLSYHQLRGMVRKYGLVGQS,soluble
10,AVVSTDEYVTRTNIYYHAGSSRLLAVGHPYYAIKKQDSNKIAVPKVSGLQYRVFRVKLPDPNKFGFPDTSFYDPASQRLVWACTGVEVGRGQPLGVGISGHPLLNKLDDTENSNKYVGNSGTDNRECISMDYKQTQLCLIGCRPPIGEHWGKGTPSNANQVKAGECPPLELLNTVLQDGDMVDTGFGAMDFTTLQANKSDVPLDICSSICKYPDYLKMVSEPYGDMLFFYLRREQMFVRHLFNRAGTVGETVPADLYIKGTTGTLPSTSYFPTPSGSMVTSDAQIFNKPYWLQRAQGHNNGICWSNQLFVTVVDTTRSTNMSVCSAVSSSDSTYKNDNFKEYLRHGEEYDLQFIFQLCKITLTADVMTYIHSMNPSILEDWNGGSGGDPLKNYTFWEVDLKEKFSADLDQFPLGRKFLLQAGL,soluble
11,CPEIEAQGNECLKEYGGDVGFGFCAPRIFPTICYTRCRENKGAKGGRCRWGQGSNVKCLCDFCGDTPQ,soluble
12,CRYVARNGFQGVIVQCETSDGDDIPAEDDREGPPLSRGVFYNDGYDERQGKLILGIFPTGQCPSPIGNGSGTATDVTGEPEKTFSGRGFGRTSPTGMMSSLGAQREMTGLYDLPTTNGNDGEKPADPNGEGRGFTNKNAGTSCTEANAHT,soluble
13,CSLIPDYQRPEAPVAAAYPQGQAYGQNTGAAAVPAADIGWREFFRDPQLQQLIGVALENNRDLRVAALNVEAFRAQYRIQRADLFPRIGVDGSGTRQRLPGDLSTTGSPAISSQYGVTLGTTAWELDLFGRLRSLRDQALEQYLATEQAQRSAQTTLVASVATAYLTLKADQAQLQLTKDTLGTYQKSFDLTQRSYDVGVASALDLRQAQTAVEGARATLAQYTRLVAQDQNALVLLLGSGIPANLPQGLGLDQTLLTEVPAGLPSDLLQRRPDILEAEHQLMAANASIGAARAAFFPSISLTANAGTMSRQLSGLFDAGSGSWLFQPSINLPIFTAGSLRASLDYAKIQKDINVAQYEKAIQTAFQEVADGLAARGTFTEQLQAQRDLVKASDEYYQLADKRYRTGVDNYLTLLDAQRSLFTAQQQLITDRLNQLTSEVNLYKALGGGWNQQTVTQQQTAKKEDPQAHHHHHH,soluble
14,DAFTDQKIRQRYADLPGELHIIELEKDKNGLGLSLAGNKDRSRMSIFVVGINPEGPAAADGRMRIGDELLEINNQILYGRSHQNASAIIKTAPSKVKLVFIRNEDAVNQMA,soluble
15,DEMVRFNPKKMSLKKEQVIKIIKIGAPAGLQGVVFSVSNVCIQSAINGFGTKAIAGSSAALNYEYFTYYVINAFNQTTVTFTSQNYGAKKLERCKKA,not soluble
16,DGDRLRQFLENNKKVLRFWCVWDERTTMYGDRRPYVLHYYLEDDSVEVLEINENNSGRDPFPVFLKRGPLPKVAVKTNTTLNPKFRKDQCYNAGDFRLGLFINVLGRDFYLHDADTFTKQWYKDNLGYTDEE,not soluble
17,DGYHLLQELGAIELAGDGEAAEAGGGGAAFRLTRTGQELAKLPVDPRIGRMILAAREQQCLAEMLIIAAALSVQDPRDRPMAEREAAESAHAKFADDKSEFLSFL,not soluble
18,DIKVTPGTSELVEQILALLSRYLSSYIHVLNKFISHLRRVATLRFERTTLIKFVKKLRFYNDSVLSYNASEFINEGKNELDPEADSFDKVILPIASMFVKSVETFDLLNYYLTQSLQKEILSKTLNEDLTLTAESILAIDDTYNHFVKFSQWMIESLRIGSNLLDLEVVQFAIKSADEDGTNIGETDNIFLQEILPVNSEEEFQTLSAAWHSILDGKLSALDEEFDVVATKWHD,soluble

row,Sequence,soluble on expression in E. coli
1,DIQMTQSPASLSASVGETVTITCRASENIYSYLAWYQQKQGKSPQLLVYNAKTLAEGVPSRFSGSGSGTQFSLKINSLQPEDFGSYYCQHHYGTPFTFGSGTKLEIKRHHHHHH,soluble
2,DIQMTQSPSSLSASVGDRVTITCQASQDITNHLNWYQQKPGKAPKLLIYDASNLETGVPSRFSGRGSGTHFTFTISSLQPADIATYYCQEYDYLPQTFGGGTKVEIK,soluble
3,DIVMTQSPDSLAVSPGERATINCKSSQNLLDSSFDTNTLAWYQQKPGQPPKLLIYWASSRESGVPDRFSGSGSGTDFTLTISSLQAEDVAVYYCQQYYSTPPTFGGGTKVEIKR,soluble
4,DKFNQFINRVLSHEGGYANHPKDPGGETNWGITKRTAQANGYNGSMRAMTREQAISIYRKAFWERYRADQMPEAVAFQFFDACVNHGYGNAARMLQRAAGVPDDGVIGAVSLKAINSLPENDLLLRFNAERLVFYTKLGTFTSFGKGWVRRVAQN,not soluble
5,DKKQLVLVLCASGATSSMLANAITKGAKQEGVNVESIAMAYGQHKDVIADYDLIILAPQMASMYEELKADCASKGTKSATTTGKEYVKLTRDPVGALKFALDIINE,not soluble
6,DKSPSSLTLALGKNIAGRPTVADLARMPHLLVAGTTGSGKSVAVNAMVLSLLFKASHNDLRMLMIDPKMLELSVYQGIPHLLAPVVTDMKEAANGLRWCVAEMERRYKLMSAVGVRNLAGFNKKVKDAEEAGQPLMDPLFKPNPDLSEVPRPLQKLPFIVIFIDEFADMMMIVGKKVEELIARLAQKARAAGIHLILATQRPSV,not soluble
7,DLADRFAELERRYDARLGVYVPATGTTAAIEYRADERFAFCSTFKAPLVAAVLHQNPLTHLDKLITYTSDDIRSISPVAQQHVQTGMTIGQLCDAAIRYSDGTAANLLLADLGGPGGGTAAFTGYLRSLGDTVSRLDAEEPELNRDPPGDERDTTTPHAIALVLQQLVLGNALPPDKRALLTDWMARNTTGAKRIRAGFPADWKVIDKTGTGDYGRANDIAVVWSPTGVPYVVAVMSDRAGGGYDAEPREALLAEAATCVAGVLA,soluble
8,DLYRRQQGELKQTKLQNSILLSVSHDLRTPLATIIGTLTTLNEYMPKLNDLERKELLDSATSESHRLHQYIENLLQATKLQHGTLKITKKDEPIANIVRDAVSRLPNYTEKVSMNMDDSVGYLSVSRSL,not soluble
9,DMIVRQAGPADAAAMSAVLHPILTGWNSARSGDAETVLTRYIDDPDRLSCAVACEGERILGFQSLKLARAGNVYDLPAGWGIIGTYVAGDAGRRGIGRALFTETLAAARRAGLAHIDATIGADNAQGLPYYSALGFQTWRELDG,not soluble
10,DRLGQPPSGYGVLLSVHEDKTVDVFTSGRKMRLTCSPNIDTDTLALGQTVRLNEALTIVEAGTYEQVGEISTLREVLDDGLRALVVGHADEERIVWLAAPLAAVFADPEADIIAYDADSPTRKLRPGDSLLVDTKAGYAFERIPKAEVEDLVL,soluble
11,DSPPSESLPSADSNRTHIVNGVGAFQSKVHPSIVTVLYFPGPVTSAISSDDQSFETSIVGHSVVIRPAPNVTAKTVGNINITTRAMNVSLTMRIAERPEDAATQLVFRALSEVEAFETRVAAEVERVRQEVEHEYERRHRNLEREVTHATEQAIARRMLMRHEGREFGAIARNEHNIIARVTRAQWIGPELYLYFEIQNRDSTPYHLAHVRLLGPTGESDHVDHLEFAGAGDVIDGSLGTVLSGQRGRGIVHVRDAARFAGKPFTFLVSEARERRAVSIGGITW,not soluble
12,DVETCRDERCYRLWINSLGIDSYVNNVFEDVRNGWILLEVLDKVSPSSVNWKHASKPPIKMPFRKVENCNQVIKIGKQLKFSLVNVAGNDIVQGNKKLILGLLWQLMRFHMLQLLKSLRSEMTDADILSWANRKVRTMGRKLQIESFKDKSLSSGLFFLNLLWAVEPRVVNWNLVTKGETDDEKRLNATYIVSVARKLGCSVFLLPEDIVEVNQKMILILTASIMYWSLQR,soluble
13,DVIELTDDSFDKNVLDSEDVWMVEFYAPWCGHCKNLEPEWAAAASEVKEQTKGKVKLAAVDATVNQVLASRYGIRGFPTIKIFQKGESPVDYDGGRTRSDIVSRALDLFSDNAPPPELLE,soluble
14,DVQLQASGGGLVQPGGSLRVSCAASGFTFSSYHMAWVRQAPGKGLEWVSTINPGDGSTYYADSVKGRFTISRDNAKNTLYLQMNSLKSEDTAVYYCAKYSGGALDAWGQGTQVTVSSQSEQKLISEEDLNHHHHH,soluble
15,EALSSKVQQLERSIGLKDLAMADLEQKVLEMEASTYDGVFIWKISDFPRKRQEAVAGRIPAIFSPAFYTSRYGYKMCLRIYLNGDGTGRGTHLSLFFVVMKGPNDALLRWPFNQKVTLMLLDQNNREHVIDAFRPDVTSSSFQRPVNDMNIASGCPLFCPVSKMEAKNSYVRDDAIFIKAIVDLTGL,soluble
16,EAQTETCTVAPRERQNCGFPGVTPSQCANKGCCFDDTVRGVPWCFYPNTIDVPPEEESEF,soluble
17,EDFFNAKVQEQIERYQRYHNTAYNLEPDIKFSPGGLRDLHLLYWVALRHSGALTLEAILQSGFIYPQEYQQLQESRAFLFKVRFALHLILKRYDNRLLFDRQIKVSELLGFRGEGNPAVEKMMKCFFQALHRISLISNLLIQHYRENVLSSNQDTVIDQLDDDFQLINQSLCLRNSFVFQEKPARILDLFFYLTQYEHVNIHSDTLRQL,not soluble
